Measured values reported in patent US20100015126A1, “Methods of Binding of Cross-Beta Structures By Chaperones” (priority 2006, published 2010).

Target: T1, human BiP (Homo sapiens, UniProt P11021)
T1 construct: The human BiP gene except the signal peptide encoding region was obtained from Geneart (Germany); linker […]; made in house; host or cells: HEK 293E cells, transient transfection, PABC674 vector; secreted into the medium
Experiment: ELISA: binding of BiP-FLAG-His to immobilized (misfolded) protein ligands
Details: ligands coated at 5 μg/ml; 6BB peptides and oxLDL 50 μg/ml
Experimental: Enzyme Linked Immunosorbent Assay for Testing of Chaperone Binding to Misfolded Proteins
Binding of chaperones to immobilized (misfolded) protein ligands was determined using an enzyme linked immuno sorbent assay (ELISA) approach. For this purpose 50 μl/well of potential ligands at indicated concentrations or coat buffer only for control and background measurement purposes, were coated overnight at 4° C. or coated for 1 h at room temperature, with motion, in 50 mM NaHCO3 pH 9.6 (coat buffer). In general, ligands were coated at 5 μg/ml, unless stated otherwise. For example, BiP binding peptides 6BB# and oxLDL were coated at 50 μg/ml. Native haemoglobin (Sigma-Aldrich, H7379), albumin, IgIV Gammagard and ovalbumin controls were prepared from lyophilized stocks. The controls were prepared by dissolving lyophilized proteins at 1 mg/ml in PBS upon resuspending by pipetting, followed by a 30 minutes period at the roller device, at room temperature. The protein solutions were centrifuged for 10 minutes at 16,000*g and diluted in coat buffer. […] After 5 washes with wash buffer followed by two washes with PBS, binding of antibodies was assessed. […] Plates were read at 450 nm. Triplicates were averaged and standard deviations calculated. […] Subsequently, sub-optimal concentrations of chaperones for binding to misfolded protein ligands are determined, and these concentrations are used for inhibition studies. […]

T1 sequence (P11021 19-654): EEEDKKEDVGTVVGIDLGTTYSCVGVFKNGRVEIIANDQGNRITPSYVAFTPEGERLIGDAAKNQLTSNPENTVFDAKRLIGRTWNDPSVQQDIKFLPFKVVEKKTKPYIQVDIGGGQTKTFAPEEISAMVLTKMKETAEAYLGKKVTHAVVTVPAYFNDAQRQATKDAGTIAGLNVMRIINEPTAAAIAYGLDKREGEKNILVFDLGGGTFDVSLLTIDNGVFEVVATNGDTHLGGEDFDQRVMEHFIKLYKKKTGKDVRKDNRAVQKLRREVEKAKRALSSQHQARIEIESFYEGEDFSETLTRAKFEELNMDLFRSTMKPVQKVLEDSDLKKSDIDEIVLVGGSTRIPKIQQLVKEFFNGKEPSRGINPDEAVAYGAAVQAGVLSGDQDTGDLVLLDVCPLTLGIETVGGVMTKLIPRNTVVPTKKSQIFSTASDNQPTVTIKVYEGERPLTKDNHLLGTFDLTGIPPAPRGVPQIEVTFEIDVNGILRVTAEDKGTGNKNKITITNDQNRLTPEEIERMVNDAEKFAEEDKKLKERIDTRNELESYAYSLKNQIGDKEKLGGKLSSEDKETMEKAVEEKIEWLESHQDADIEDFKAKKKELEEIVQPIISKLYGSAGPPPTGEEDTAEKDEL

Binding of concentration series of BiP to coated ligand: has been established
B1: dOVA standard: heat-denatured chicken ovalbumin (protein)
chain: GSIGAASMEFCFDVFKELKVHHANENIFYCPIAIMSALAMVYLGAKDSTRTQINKVVRFDKLPGFGDSIEAQCGTSVNVHSSLRDILNQITKPNDVYSFSLASRLYAEERYPILPEYLQCVKELYRGGLEPINFQTAADQARELINSWVESQTNGIIRNVLQPSSVDSQTAMVLVNAIVFKGLWEKAFKDEDTQAMPFRVTEQESKPVQMMYQIGLFRVASMASEKMKILELPFASGTMSMLVLLPDEVSGLEQLESIINFEKLTEWTSSNVMEERKIKVYLPRMKMEEKYNLTSVLMAMGITDVFSSSANLSGISSAESLKISQAVHAAHAEINEAGREVVGSAEAGVDAASVSEEFRADHPFLFCIKHIATNAVLFFGRCVSP
